Reference: the supplement of paper PMC12855868

B1: library; numbered along this chain (parent)
chain: MAAAGGARLLRAASAVLGGPAGRWLHHAGSRAGSSGLLRNRGPGGSAEASRSLSVSARARSSSEDKITVHFINRDGETLTTKGKVGDSLLDVVVENNLDIDGFGACEGTLACSTCHLIFEDHIYEKLDAITDEENDMLDLAYGLTDRSRLGCQICLTKSMDNMTVRVPETVADARQSIDVGKTS

Variants of: B1
Test: scaled log2 fold change in cell abundance, elesclomol vs control (0 = silent mean, 1 = nonsense mean) (scaled log2 ratio); higher = higher viability under elesclomol (loss of FDX1 cuproptosis function)
Conditions: glucose 10 mM
[1] = with ABC1 FDX1 KO, elesclomol 5 nM, 14 days
[2] = with HEK293T FDX1 KO, elesclomol 40 nM, 11 days
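Also: variant abundance is its share of total variant reads in each endpoint sample, from next-generation sequencing of the integrated ORF PCR-amplified out of genomic DNA.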

Row | Variant | scaled log2 fold change [1] | scaled log2 fold change [2]
1 | L89D | 1.11 | 1.26
2 | L89G | 0.853 | 0.301
3 | L89H | 1.34 | 0.109
4 | L89S | 1.06 | 0.924
5 | L89M | 0.256 | 0.404
6 | L89W | 0.552 | 1.33
7 | L89R | 1.16 | 0.853
8 | L89P | 0.89 | 0.172
9 | L89A | -0.0423 | 
10 | L89C | -0.261 | 0.257
11 | L89Q | 1.64 | 0.508
12 | S88W | 0.356 | -0.287
13 | S88F | 0.301 | 
14 | S88C | 0.057 | 1.32
15 | S88L | 0.0552 | 
16 | S88G | 0.17 | 0.309
17 | S88N | 0.582 | 
18 | S88A | 0.0293 | 0.31
19 | S88V | -0.223 | 0.0665
20 | S88E | 0.289 | 0.37
21 | S88Q | 0.191 | -0.766
22 | S88I | 0.199 | 
23 | S88T | -0.996 | -0.234
24 | K82F | -0.531 | -0.243
25 | K82G | -0.688 | -0.137

Row | Variant | scaled log2 fold change [1] | scaled log2 fold change [2]
26 | K82I | 0.215 | 0.419
27 | K82Y | -0.328 | -0.154
28 | K82S | -0.449 | 
29 | K82E | 0.0245 | -0.309
30 | K82Q | -0.471 | 
31 | K82T | -0.0344 | 0.0849
32 | K82C | 0.296 | 0.165
33 | K82A | 0.109 | 
34 | K82M | 0.172 | 
35 | K82P | -0.285 | -0.31
36 | K82N | -0.873 | 0.352
37 | K82H | -0.223 | -0.0273
38 | K82V | -0.0519 | 0.989
39 | K82L | 0.0365 | -0.76
40 | K82D | -0.58 | -0.293
41 | K82R | -0.619 | -0.611
42 | K82W | 0.0928 | -0.0187
43 | K84V | 0.289 | -0.902
44 | K84F | 0.195 | 0.127
45 | K84G | -0.452 | -0.00112
46 | K84M | 0.138 | 
47 | K84W | 0.191 | -0.16
48 | K84E | 0.218 | -0.39
49 | K84S | 0.112 | 0.32
50 | K84L | 0.349 | -0.439

Row | Variant | scaled log2 fold change [1] | scaled log2 fold change [2]
51 | K84A | -0.0494 | 0.375
52 | K84H | 0.0255 | 0.273
53 | K84I | 0.197 | 1.03
54 | K84Q | 0.0208 | -0.794
55 | K84D | -0.0908 | 0.0439
56 | K84N | 0.0469 | 0.28
57 | K84Y | -0.449 | 0.782
58 | K84T | -0.0915 | -0.906
59 | K84R | -0.138 | -0.784
60 | K84P | 0.11 | 1.21
61 | K84C | 0.225 | 0.851
62 | G86H | 0.239 | 0.453
63 | G86A | 0.349 | 0.0692
64 | G86V | 0.654 | 0.478
65 | G86F | 0.287 | -0.571
66 | G86R | 0.269 | -0.218
67 | G86K | 0.242 | -0.0346
68 | G86C | 0.175 | 1.4
69 | G86M | -0.125 | -0.231
70 | G86Y | 0.0464 | 0.586
71 | G86S | 0.0131 | 0.985
72 | G86E | 0.115 | 0.852
73 | G86P | 0.208 | 0.284
74 | G86N | 0.233 | 
75 | G86D | 0.248 | -0.689

Row | Variant | scaled log2 fold change [1] | scaled log2 fold change [2]
76 | G86W | 0.246 | 
77 | G86L | 0.171 | 0.00376
78 | G86Q | -0.2 | 0.928
79 | G86T | 0.117 | -0.144
80 | G86I | 0.576 | 0.0646
81 | D91N | 0.109 | -0.0567
82 | D91W | 0.0916 | -0.265
83 | D91Y | -0.0508 | 0.728
84 | D91I | 0.418 | -0.331
85 | D91R | -0.658 | -0.752
86 | D91P | 0.307 | 0.179
87 | D91G | 0.216 | 0.254
88 | D91H | -0.00925 | -0.865
89 | D91F | 0.29 | -0.219
90 | D91Q | -1.31 | -0.476
91 | D91K | -0.39 | -0.0722
92 | D91S | -0.972 | 0.774
93 | D91L | 0.217 | -0.127
94 | D91M | -0.119 | -1.37
95 | D91V | -0.017 | 0.747
96 | D91C | 0.188 | 0.246
97 | D91E | -0.0305 | 1.04
98 | D91T | 0.169 | 
99 | L79W | -0.0916 | 0.138
100 | L79S | 0.0141 | 

Row | Variant | scaled log2 fold change [1] | scaled log2 fold change [2]
101 | L79R | -0.538 | -0.117
102 | L79Y | -0.343 | 0.278
103 | L79T | -0.0538 | 
104 | L79V | 0.047 | 1.39
105 | D87H | -0.183 | 0.121
106 | D87K | 0.34 | 0.127
107 | D87W | -0.221 | -0.509
108 | D87I | -0.274 | -0.421
109 | D87A | 0.0673 | 
110 | D87F | 0.195 | -0.393
111 | D87T | -0.14 | 
112 | D87Y | -0.31 | -0.0378
113 | D87L | -0.301 | -0.549
114 | D87R | -0.147 | 
115 | D87Q | -0.303 | 0.511
116 | D87C | -0.824 | -0.252
117 | D87M | 0.055 | -0.441
118 | D87S | -0.493 | 
119 | D87V | -0.164 | -0.704
120 | D87P | 0.439 | -0.0143
121 | D87G | -0.161 | -0.147
122 | D87N | -0.0848 | 
123 | D87E | -0.224 | 0.0766
